Target: the molecule itself
Assay: cryo-EM structure

B1: N-terminal IST1 R16E/K27E mutant (IST1NTD^R16E/K27E) (domain or fragment, human, UniProt P53990 1-189, looked up)
chain: MLGSGFKAERLRVNLELVINRLKLLEEKKTELAQKARKEIADYLAAGKDERARIRVEHIIREDYLVEAMEILELYCDLLLARFGLIQSMKELDSGLAESVSTLIWAAPRLQSEVAELKIVADQLCAKYSKEYGKLCRTNQIGTVNDRLMHKLSVEAPPKILVERYLIEIAKNYNVPYEPDSVVMAEAPP
  binding result: binds

From article PMC7343221 (Nature structural & molecular biology, 2020)
